Laboratory results from patent publication US8361793B2, “Monoclonal antibodies against gonadotropin-releasing hormone receptor” (Vancouver Biotech Ltd., priority 2009, dated 2013).

T1: GnRH receptor on OC-3-VGH cancer cells (Homo sapiens, UniProt P30968)
T1 construct: endogenous in cells; host or cells: OC-3-VGH ovarian cancer cells
T1 sequence (P30968 1-328): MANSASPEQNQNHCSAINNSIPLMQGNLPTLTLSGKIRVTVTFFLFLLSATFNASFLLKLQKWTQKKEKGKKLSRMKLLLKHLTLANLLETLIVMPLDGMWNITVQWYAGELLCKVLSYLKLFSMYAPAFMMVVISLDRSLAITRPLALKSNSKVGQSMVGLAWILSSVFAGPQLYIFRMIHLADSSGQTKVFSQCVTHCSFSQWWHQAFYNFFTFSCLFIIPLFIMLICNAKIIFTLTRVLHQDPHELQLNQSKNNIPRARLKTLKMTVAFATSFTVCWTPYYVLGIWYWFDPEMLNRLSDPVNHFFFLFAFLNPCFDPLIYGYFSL

T2: human GnRH receptor (Homo sapiens, UniProt P30968)
T2 construct: endogenous in cells; host or cells: OC-3-VGH ovarian cancer cells
T2 sequence (P30968 1-328): T1 sequence (P30968 1-328)

T3: synthetic peptide corresponding to the N-terminal 1-29 amino acid residues of human GnRH receptor (Homo sapiens, UniProt P30968)
T3 construct: purchased Gemed Lab, South San Francisco, Calif. and Genescript, NJ (custom synthesis)
T3 sequence (P30968 1-29 limits assumed): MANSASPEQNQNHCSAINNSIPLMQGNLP

B1: GHR-106: monoclonal antibody against synthetic peptide of positions 1-29 of the extracellular domain of human GnRH receptor; hybridoma ATCC PTA-10252 (antibody, V domains shown)
VL: MDSQAQVLILLLLWVSGTCGDIVMSQSPSSLAVSAGEKVTMSCKSSQSLLNSRTRKNYLAWYQQKPGQSPKLLIYWASTRESGVPDRFTGSGSGTDFTLTISSVQAEDLAVYYCKQSYNLYTFGGGTKLEIK
VH: QVQLKESGPGLVAPSQSLSITCTVSGFSLSRYSVHWVRQPPGKGLEWLGMIWGGGSTDYNSALKSRLSISKDNSKSQVFLKMNSLQTDDTAMYYCARGNDGYYSFAYWGQGTLVTVSS
modifications: Synthetically constructed monoclonal antibody GHR106
B2: GHR-103: monoclonal antibody to human GnRH receptor; amino acid sequence determined to be the same as that of GHR-106 (antibody, V domains shown)
VL: B1 VL
VH: B1 VH

Columns and labels:
[1] = test system: OC-3-VGH ovarian cancer cells; assay: MTT assay, anti-proliferative effects; format: cell-based, human; conditions: 48 hrs; GnRH 0.1 μg/ml, Antide 0.1 and 0.2 μg/ml, GHR-106 10 and 20 μg/ml
Protocol: Anti-proliferative effects of GnRH and GHR-106 monoclonal antibody on the growth of cultured cancer cells were also studied by MTT assay. An MTT assay was performed on cancer cells on a 24-well plate, as described by Choi, J-H, et al., Endocrine-Related Cancer (2006) 13:641-651.
1×10^4 Cells were dispensed into each well and cultured for 48 hours. Following removal of cultured media, fresh medium containing GnRH (0.1 μg/ml) or GHR-106 (10 μg/ml) was added to each well for additional 48 hours incubation. After the culture medium was removed, 200 μl of MTT (3-(4,5-dimethylthiazol-2-yl)-2,5-diphenyltetrazoliumbromide) (2.5 mg/ml in PBS, Sigma) was added to each well. After 5 hours of incubation with MTT at 37° C. in a 5% CO2 incubator, the supernatant was removed, and 200 μl of dimethylsulfoxide (DMSO) was added to each well, and shaking at 150 rpm for 5 min. Absorbance at 560 nm was determined spectrophotometrically. The negative control containing cells without any antibody treatment served as the negative control.

[2] = test system: ribosomal proteins (P0, P1, P2 and L37) mRNA in OC-3-VGH cancer cells; assay: Semi-quantitative RT-PCR of mRNA expression of ribosomal proteins; format: cell-based, human; conditions: 24 hours, GHR-106 10 μg/ml, GnRH 0.1 μg/ml, relative to GAPDH
Description: Four ribosomal proteins (P0, P1, P2 and L37) were selected for semi-quantitative analysis of mRNA expression. Expression of mRNA of GAPDH gene was used as the internal control. Primers for amplification were as follows:
A housekeeping gene, glyceraldehyde-3-phosphate dehydrogenase (GAPDH) was amplified to check the functional integrity of cDNA and used as internal control by using 5′-[…]-3′ (sense) (SEQ ID NO:20) and 5′-[…]-3′ (antisense) (SEQ ID NO:21) as primers (805 bp) (11).
RNA extraction, cDNA preparation and PCR amplification were conducted as described above in Preparation A.
Percent changes in RT-PCR signals which represent levels of P0, P1, P2, and L37 ribosomal proteins are presented with respect to GAPDH (100%) at 0 and 24 hrs. Messenger RNA expression of these genes of cultured cells without GHR-106 treatment served as the internal negative control and those with GnRH treatment served as positive control.

[3] = biological target: T1, GnRH receptor on OC-3-VGH cancer cells; assay: Competition with GHR-106 for binding to microwells coated with OC-3-VGH cancer cells; conditions: 2 μg/ml GHR-106; GnRH 0.1 to 10 μg/ml
Protocol: (§1) Microwells coated with synthetic peptide or cancer cells were used to estimate the affinity constant between GHR-106 and GnRH receptor. Following one hour incubation at 37° C. with GHR-106 in microwells, goat anti-mouse IgG labeled with alkaline phosphatase served as the second antibody for signal detection with p-nitrophenylphosphate.
The decrease in relative signal intensity of antibody binding to cancer cells with increasing GnRH concentrations ranging from 0.1 to 10 μg/ml is shown in FIG. 3A.

A549 = assay: TUNEL apoptosis assay, A549; format: cell-based, human; conditions: 24-hour treatment
DU-145 = assay: TUNEL apoptosis assay, DU-145; format: cell-based, human; conditions: 24-hour treatment
MDA-MB-435S = assay: TUNEL apoptosis assay, MDA-MB-435S; format: cell-based, human; conditions: 24-hour treatment
human GnRH receptor = biological target: T2, human GnRH receptor; assay: Western blot assay of OC-3-VGH ovarian cancer cell extract; format: binding; conditions: OC-3-VGH cancer cell extract
Protocol: Western blot assay was performed with GHR-106 using alkaline phosphatase-labeled goat anti-mouse IgG as the detecting probe.

[4] = biological target: T3, synthetic peptide corresponding to the N-terminal 1-29 amino acid residues of human GnRH receptor; assay: ELISA, dose-dependent binding to microwells coated with synthetic peptide; conditions: one hour incubation at 37° C.
Protocol: as §1

OC-3-VGH cancer cells = assay: ELISA, dose-dependent binding to microwells coated with cancer cells; set-up: species or system human; conditions: one hour incubation at 37° C.
Protocol: as §1

| Molecule | anti-proliferative effect (relative absorbance at 560 nm normalized with negative control) [1] | mRNA expression of four ribosomal proteins (P0, P1, P2 and L37) [2] | % Apoptosis (Negative Control*) (A549; A549, 10 μg/mL) | % Apoptosis (Negative Control*) (A549; A549, 20 μg/mL) | % Apoptosis (Negative Control*) (DU-145; DU-145, 10 μg/mL) | % Apoptosis (Negative Control*) (DU-145; DU-145, 20 μg/mL) | % Apoptosis (Negative Control*) (MDA-MB-435S; 20 μg/mL) | molecular weight of protein band recognized in Western blot (human GnRH receptor) | dose-dependent binding to 1-29 synthetic peptide coated onto microwells [4] | dose-dependent binding to OC-3-VGH cancer cells coated on microwells (OC-3-VGH cancer cells) | further results |
| --- | --- | --- | --- | --- | --- | --- | --- | --- | --- | --- | --- |
| Antide | induce apoptosis, although to a much lesser extent |  |  |  |  |  |  |  |  |  |  |
| Gonadotropin releasing hormone [GnRH I, reference compound] | significantly inhibit the growth of cultured cancer cells | down regulation of mRNA expression |  |  |  |  |  |  |  |  |  |
| MANSASPEQNQNHCSAINNSIPLMQGNLP (SEQ ID NO:7) (PEPTIDE (1)...(29) extracellular domain of human GnRH receptor; listed as Homo sapiens) [1-29 synthetic peptide, synthetic peptide corresponding to N-terminal residues 1-29 of human GnRH receptor] |  |  |  |  |  |  |  |  |  |  | inhibition of the binding of GHR-106 to cancer cells coated on microwells [3]: inhibit GHR-106 binding |
| RP215: antibody used as positive control in the apoptosis assay [reference compound] |  |  | 30 ± 9 (11 ± 5)^+ % | 36 ± 12 (17 ± 3)^+ % | 32 ± 7 (12 ± 3)^+ % | 43 ± 4 (19 ± 15)^− % | 37 ± 8 (6 ± 1)^+ % |  |  |  |  |
| B1 | significantly inhibit the growth of cultured cancer cells | significant decrease in expression | 34 ± 10 (11 ± 5)^+ % | 46 ± 11 (17 ± 3)^+ % | 32 ± 2 (12 ± 3)^+ % | 32 ± 5 (19 ± 15)^− % | 45 ± 11 (6 ± 1)^+ % | approximately 60 KDa | dose-dependent binding | dose-dependent binding | % Apoptosis (Negative Control*) (MDA-MB-435S; 10 μg/mL): 31 ± 4 (7 ± 2)^+ % |
| B2 |  |  |  |  |  |  |  | 60 KDa | dose-dependent binding | dose-dependent binding |  |
